# How the values were obtained:
# [1] = molecular target: moFcRn; test: BLI
# [2] = molecular target: moFcgRIV; test: BLI
# [3] = molecular target: moFcRn; test: -; reported
# [4] = molecular target: moFcgRIII; test: -; reported
# [5] = molecular target: moFcgRIIb; test: -; reported
# [6] = molecular target: moFcgRIV; test: -; reported
Substance,Kd [1],Kd [2],Kd [3],Kd [4],Kd [5],Kd [6]
LJM716 hIgG1,12.8 nM,701 nM,,,,
Seribantumab hIgG2,6.69 nM,,,,,
hIgG1,,,72 nM,9300 nM,1100 nM,280 nM
hIgG2,,,63 nM,9700 nM,7900 nM,
hIgG3,,,230 nM,1300 nM,700 nM,170 nM
hIgG4,,,116 nM,21000 nM,11000 nM,26000 nM
mIgG1,,,1160 nM,3200 nM,301 nM,
mIgG2a,,,490 nM,1460 nM,2390 nM,34.5 nM
mIgG2b,,,545 nM,1560 nM,448 nM,59 nM
mIgG3,,,140 nM,,,
